Test results from patent US20250099634A1, “METHOD OF TREATING CANCER” (Novartis AG, priority 2023, published 2025).

Experiments:
[1] = system: Grade 2 and Grade 3 advanced GEP-NET; assay: NETTER-2 Progression-Free Survival (PFS), central review using RECIST 1.1; assay type: in vivo, human; conditions: for Kaplan-Meier event-free estimates (95% CI): PFS
Procedure: The primary efficacy end-point is PFS as measured by objective tumor response, which is determined by RECIST criteria, Version 1.1 (Eisenhauer, et al., 2009). Tumor response will be assessed locally and centrally.
It is recommended that for each patient identical acquisition and reconstruction protocols be used at all time-points. Central, blinded, real-time IRC (Independent Review Committee) assessment will be conducted for determining progressive disease. Changes from randomization date will be assessed at week 16±1, week 24±1 and then every 12±1 weeks until the PFS primary analysis End-Point has been reached, then until Week 72 after randomization, unless the patient progresses or dies.
The primary endpoint of the study is progression-free survival (PFS), defined as the time from the date of randomization to the date of the first documented progression or death due to any cause. PFS will be assessed via central review according to RECIST 1.1.
The stratification will be based on following randomization stratification factors (grade: G2 vs. G3; and tumor origin: pNET vs other origin).
Analyses will be based on the FAS population according to the randomized treatment group and strata assigned at randomization. The PFS distribution will be estimated using the Kaplan-Meier method, and Kaplan-Meier curves, median and associated 95% confidence intervals will be presented for each treatment group. The hazard ratio for PFS will be calculated, along with its 95% confidence interval, from a stratified Cox model using the same stratification factors as for the log-rank test.

[2] = NETTER-2 worst post-baseline hematology abnormalities based on CTC grades (Safety Set); assay type: in vivo, human
Text: The laboratory assessments require that blood samples for hematology and blood chemistry, and a urine sample for urinalysis are taken. Laboratory assessments will be performed at the investigational site.
Blood tests performed 4 weeks after any treatment cannot serve as baseline values for the next treatment.
All laboratory data will be listed by treatment group, subject, and visit/time and if normal ranges are available abnormalities will be flagged. Summary statistics will be provided by treatment and visit/time. Shift tables using the low/normal/high/(low and high) classification will be used to compare baseline to the worst on-treatment value.
Grading of laboratory values will be assigned programmatically as per NCI Common Terminology Criteria for Adverse Events (CTCAE) version 5.0 or current version. The calculation of CTCAE grades will be based on the observed laboratory values only, clinical assessments will not be taken into account.
The following summaries will be generated separately for hematology, and biochemistry tests: • 1. Listing of all laboratory data with values flagged to show the corresponding CTCAE grades if applicable and the classifications relative to the laboratory normal ranges • 2. For laboratory tests where grades are defined by CTCAE, • 3. Worst post-baseline CTCAE grade (regardless of the baseline status). Each subject will be counted only once for the worst grade observed post-baseline. • 4. Shift tables using CTCAE grades to compare baseline to the worst on-treatment value • 5. For laboratory tests where grades are not defined by CTCAE, • 6. Shift tables using the low/normal/high/(low and high) classification to compare baseline to the worst on-treatment value.

[3] = NETTER-2 serious adverse events in the randomized treatment period (Safety Set)
Text: All adverse events (AEs), whether or not spontaneously reported by the patient, will be recorded starting from the signing of the ICF until the end of the Treatment Phase. Safety summaries (tables, figures) include only data from the on-treatment period with the exception of baseline data which will also be summarized where appropriate (e.g. change from baseline summaries). In addition, a separate summary for death including on treatment and post treatment deaths will be provided. In particular, summary tables for adverse events (AEs) will summarize only on-treatment events, with a start date during the on-treatment period (treatment-emergent AEs).
Separate summaries will be provided for study medication related adverse events, death, serious adverse events, other significant adverse events leading to discontinuation and adverse events leading to dose adjustment.

[4] = central review, RECIST 1.1, Full Analysis Set
[5] = All grades, randomized treatment period, Safety Set
[6] = Grade >=3, randomized treatment period, Safety Set
[7] = randomized treatment period, Safety Set

C[C@@H](O)[C@H](NC(=O)[C@@H]1CSSC[C@H](NC(=O)[C@@H](Cc2ccccc2)NC(=O)CN2CCN(CC(=O)[O-])CCN(CC(=O)[O-])CCN(CC(=O)[O-])CC2)C(=O)N[C@@H](Cc2ccc(O)cc2)C(=O)N[C@H](Cc2c[nH]c3ccccc23)C(=O)N[C@@H](CCCCN)C(=O)N[C@@H]([C@@H](C)O)C(=O)N1)C(=O)O.[177Lu+3] [Lutathera, ^177Lu-DOTA^0-Tyr^3-Octreotate]
Kaplan-Meier event-free estimates (95% CI) ([1]; 4 months, Full Analysis Set): 95.8 (91.0, 98.1) % | Kaplan-Meier event-free estimates (95% CI) ([1]; 6 months, Full Analysis Set): 92.3 (86.6, 95.7) % | Kaplan-Meier event-free estimates (95% CI) ([1]; 9 months, Full Analysis Set): 85.6 (78.6, 90.5) % | Kaplan-Meier event-free estimates (95% CI) ([1]; 12 months, Full Analysis Set): 80.7 (72.9, 86.4) % | Kaplan-Meier event-free estimates (95% CI) ([1]; 15 months, Full Analysis Set): 71.0 (61.9, 78.3) % | Kaplan-Meier event-free estimates (95% CI) ([1]; 18 months, Full Analysis Set): 66.5 (56.9, 74.4) % | Kaplan-Meier event-free estimates (95% CI) ([1]; 24 months, Full Analysis Set): 49.8 (38.5, 60.1) % | Kaplan-Meier event-free estimates (95% CI) ([1]; 30 months, Full Analysis Set): 36.1 (22.3, 50.1) % | PFS Events ([1]; Full Analysis Set): 55 (36.4) n (%) | PFS events: Deaths ([1]; Full Analysis Set): 8 (5.3) n (%) | PFS events: Progression ([1]; Full Analysis Set): 47 (31.1) n (%) | estimated risk reduction (progression or death) ([1]; Lutathera arm compared to High-dose Octreotide arm): 72% | PFS 25th percentile (95% CI) [1, 4]: 14.1 (10.9, 17.0) months | PFS 75th percentile (95% CI) [1, 4]: NE (29.0, NE) | Worst post-baseline abnormality: Neutrophils (10E9/L)-Decrease ([2]; All grades (CTCAE v5.0), randomized treatment period, Safety Set): 55 (37.4) n (%) | Grade 3/4 hematologic lab abnormality: lymphocytes decrease ([2]; in vivo): 38.1% | Worst post-baseline abnormality: Leukocytes (10E9/L)-Increase ([2]; in vivo): 0 n (%) | Worst post-baseline abnormality: Neutrophils (10E9/L)-Decrease ([2]; in vivo): 5 (3.4) n (%) | Fatal SAEs [3, 5]: 3 (2.0) n (%) | Fatal SAEs Related to Amino Acids [3, 5]: 0 n (%) | Fatal SAEs Related to Any Treatment [3, 5]: 0 n (%) | Fatal SAEs Related to Lutathera [3, 5]: 0 n (%) | Fatal SAEs Related to Octreotide [3, 5]: 0 n (%) | SAEs [3, 5]: 30 (20.4) n (%) | SAEs Related to Amino Acids [3, 5]: 0 n (%) | SAEs Related to Any Treatment [3, 5]: 8 (5.4) n (%) | SAEs Related to Lutathera [3, 5]: 8 (5.4) n (%) | SAEs Related to Octreotide [3, 5]: 0 n (%) | Serious adverse event: Abdominal pain [3, 5]: 2 (1.4) n (%) | Serious adverse event: Abdominal sepsis [3, 5]: 0 n (%) | Serious adverse event: Acute coronary syndrome [3, 5]: 0 n (%) | Serious adverse event: Acute kidney injury [3, 5]: 0 n (%) | Serious adverse event: Anaemia [3, 5]: 2 (1.4) n (%) | Serious adverse event: Ascites [3, 5]: 1 (0.7) n (%) | Serious adverse event: Blood bilirubin increased [3, 5]: 2 (1.4) n (%) | Serious adverse event: Carcinoid heart disease [3, 5]: 0 n (%) | Serious adverse event: Carcinoid syndrome [3, 5]: 0 n (%) | Serious adverse event: Diarrhoea [3, 5]: 1 (0.7) n (%) | Serious adverse event: Femur fracture [3, 5]: 0 n (%) | Serious adverse event: Gastroenteritis [3, 5]: 0 n (%) | Serious adverse event: Gastrointestinal stoma complication [3, 5]: 2 (1.4) n (%) | Serious adverse event: Generalised oedema [3, 5]: 0 n (%) | Serious adverse event: Hip fracture [3, 5]: 0 n (%) | Serious adverse event: Hyperglycaemia [3, 5]: 0 n (%) | Serious adverse event: Hypertension [3, 5]: 0 n (%) | Serious adverse event: Hypoalbuminaemia [3, 5]: 0 n (%) | Serious adverse event: Intestinal obstruction [3, 5]: 1 (0.7) n (%) | Serious adverse event: Jaundice [3, 5]: 0 n (%) | Serious adverse event: Lower gastrointestinal haemorrhage [3, 5]: 0 n (%) | Serious adverse event: Metabolic encephalopathy [3, 5]: 0 n (%) | Serious adverse event: Oedema peripheral [3, 5]: 1 (0.7) n (%) | Serious adverse event: Pleurisy [3, 5]: 0 n (%) | Serious adverse event: Pyrexia [3, 5]: 2 (1.4) n (%) | Serious adverse event: Small intestinal obstruction [3, 5]: 5 (3.4) n (%) | Serious adverse event: Tumour lysis syndrome [3, 5]: 0 n (%) | Serious adverse events: Number of subjects with at least one event [3, 5]: 30 (20.4) n (%) | Fatal SAEs [3, 6]: 3 (2.0) n (%) | Fatal SAEs Related to Amino Acids [3, 6]: 0 n (%) | Fatal SAEs Related to Any Treatment [3, 6]: 0 n (%) | Fatal SAEs Related to Lutathera [3, 6]: 0 n (%) | Fatal SAEs Related to Octreotide [3, 6]: 0 n (%) | SAEs [3, 6]: 24 (16.3) n (%) | SAEs Related to Amino Acids [3, 6]: 0 n (%) | SAEs Related to Any Treatment [3, 6]: 6 (4.1) n (%) | SAEs Related to Lutathera [3, 6]: 6 (4.1) n (%) | SAEs Related to Octreotide [3, 6]: 0 n (%) | Serious adverse event: Abdominal pain [3, 6]: 2 (1.4) n (%) | Serious adverse event: Abdominal sepsis [3, 6]: 0 n (%) | Serious adverse event: Acute coronary syndrome [3, 6]: 0 n (%) | Serious adverse event: Acute kidney injury [3, 6]: 0 n (%) | Serious adverse event: Anaemia [3, 6]: 1 (0.7) n (%) | Serious adverse event: Ascites [3, 6]: 0 n (%) | Serious adverse event: Blood bilirubin increased [3, 6]: 1 (0.7) n (%) | Serious adverse event: Carcinoid heart disease [3, 6]: 0 n (%) | Serious adverse event: Carcinoid syndrome [3, 6]: 0 n (%) | Serious adverse event: Diarrhoea [3, 6]: 0 n (%) | Serious adverse event: Femur fracture [3, 6]: 0 n (%) | Serious adverse event: Gastroenteritis [3, 6]: 0 n (%) | Serious adverse event: Generalised oedema [3, 6]: 0 n (%) | Serious adverse event: Hip fracture [3, 6]: 0 n (%) | Serious adverse event: Hyperglycaemia [3, 6]: 0 n (%) | Serious adverse event: Hypertension [3, 6]: 0 n (%) | Serious adverse event: Hypoalbuminaemia [3, 6]: 0 n (%) | Serious adverse event: Intestinal obstruction [3, 6]: 0 n (%) | Serious adverse event: Jaundice [3, 6]: 0 n (%) | Serious adverse event: Lower gastrointestinal haemorrhage [3, 6]: 0 n (%) | Serious adverse event: Metabolic encephalopathy [3, 6]: 0 n (%) | Serious adverse event: Oedema peripheral [3, 6]: 0 n (%) | Serious adverse event: Pleurisy [3, 6]: 0 n (%) | Serious adverse event: Pyrexia [3, 6]: 1 (0.7) n (%) | Serious adverse event: Tumour lysis syndrome [3, 6]: 0 n (%) | Serious adverse events: Number of subjects with at least one event [3, 6]: 24 (16.3) n (%) | Incidence of SAEs: Small intestinal obstruction ([3]; most frequent SAE, summary table): 5 (3.4) (%) | Serious AEs ([3]; randomized treatment period): 20.4% | Serious AEs, Treatment-related ([3]; randomized treatment period): 5.4% | SAE with fatal outcome: Blood bilirubin increased [3, 7]: 1 (0.7) n (%) | SAE with fatal outcome: Diarrhoea [3, 7]: 0 n (%) | SAE with fatal outcome: Dyspnoea [3, 7]: 1 (0.7) n (%) | SAE with fatal outcome: Intestinal perforation [3, 7]: 1 (0.7) n (%) | SAE with fatal outcome: Tumor Lysis syndrome [3, 7]: 0 n (%) | SAEs with fatal outcome [3, 7]: 3 (2.0) n (%) | SAEs with fatal outcome reported in subjects with primary reason for death = Disease under Study [3, 7]: 3 (2.0) n (%)
